What was measured:
CENP-S-EGFP (human) = CENP-S-EGFP (human) (UniProt Q8N2Z9); assay: FRET or BRET; acceptor photobleaching FRET at centromeres in living cells; EGFP donor, mCherry acceptor bleached in a 4-10 µm^2 region; E_FRET against EVAR of an unbleached region, Mann-Whitney rank-sum test
EGFP-CENP-S (human) = EGFP-CENP-S (human) (UniProt Q8N2Z9); assay: as above

E FRET (CENP-S-EGFP (human)): 4.15
ΔE (E FRET – EVAR) (CENP-S-EGFP (human)): 4.5
E FRET (EGFP-CENP-S (human)): 3
ΔE (E FRET – EVAR) (EGFP-CENP-S (human)): 4.5
Substance: CENP-T-mCherry (from UniProt Q96BT3 1-561) (natural protein)
